How the values were obtained:
SDN1 wild type [1] = target: T1, SDN1 wild type (Arabidopsis thaliana, UniProt A3KPE8 2-409); assay: UV crosslinking (5-iodoU, 312 nm); EMSA: 50 mM Tris pH 8.0, 100 mM NaCl, 1 mM DTT, no Mg2+, 2 nM RNA, on ice 30 min, 8% native PAGE in 0.5x TBE; NMR: 50 mM Na2HPO4 pH 7.4, 100 mM NaCl, 10% D2O; settings: protein: recombinant, tags: His-SUMO tag removed
T1 sequence: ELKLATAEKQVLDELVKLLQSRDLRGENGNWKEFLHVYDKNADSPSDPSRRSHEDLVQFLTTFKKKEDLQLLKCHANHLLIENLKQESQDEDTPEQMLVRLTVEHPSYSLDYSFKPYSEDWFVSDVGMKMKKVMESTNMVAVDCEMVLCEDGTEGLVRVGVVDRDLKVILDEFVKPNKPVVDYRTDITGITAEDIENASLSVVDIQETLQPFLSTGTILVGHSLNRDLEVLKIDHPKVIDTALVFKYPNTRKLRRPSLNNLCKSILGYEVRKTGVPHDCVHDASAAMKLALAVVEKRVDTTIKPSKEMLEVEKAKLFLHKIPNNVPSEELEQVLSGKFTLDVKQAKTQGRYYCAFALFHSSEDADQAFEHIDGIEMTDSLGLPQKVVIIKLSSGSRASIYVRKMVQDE

SDN1 ΔC = target: T2, SDN1 ΔC (Arabidopsis thaliana, UniProt A3KPE8 2-302); assay: as above; settings: protein: recombinant, tags: His-SUMO tag removed
T2 sequence: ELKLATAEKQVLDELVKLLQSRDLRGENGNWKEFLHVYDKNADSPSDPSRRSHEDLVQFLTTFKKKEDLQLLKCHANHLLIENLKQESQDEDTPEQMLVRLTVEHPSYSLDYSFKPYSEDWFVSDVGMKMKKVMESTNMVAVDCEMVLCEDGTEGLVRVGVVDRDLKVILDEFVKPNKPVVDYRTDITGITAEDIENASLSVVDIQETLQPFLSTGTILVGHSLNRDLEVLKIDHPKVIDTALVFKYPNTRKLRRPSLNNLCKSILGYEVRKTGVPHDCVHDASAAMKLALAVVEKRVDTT

SDN1 RRM (NMR) = target: T3, SDN1 RRM (NMR) (Arabidopsis thaliana, UniProt A3KPE8 305-409); assay: NMR titration; EMSA: 50 mM Tris pH 8.0, 100 mM NaCl, 1 mM DTT, no Mg2+, 2 nM RNA, on ice 30 min, 8% native PAGE in 0.5x TBE; NMR: 50 mM Na2HPO4 pH 7.4, 100 mM NaCl, 10% D2O; settings: protein: recombinant; tags: His-SUMO tag removed; 15N-labeled; single strand
T3 sequence: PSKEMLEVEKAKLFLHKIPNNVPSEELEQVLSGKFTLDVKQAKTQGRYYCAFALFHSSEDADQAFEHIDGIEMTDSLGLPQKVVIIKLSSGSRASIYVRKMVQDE

SDN1 wild type [2] = target: T1, SDN1 wild type; assay: crystal structure; 2 Mg2+; 9 of 10 nt seen, 2.8 Å; EMSA: 50 mM Tris pH 8.0, 100 mM NaCl, 1 mM DTT, no Mg2+, 2 nM RNA, on ice 30 min, 8% native PAGE in 0.5x TBE; NMR: 50 mM Na2HPO4 pH 7.4, 100 mM NaCl, 10% D2O; settings: protein: recombinant; tags: His-SUMO tag removed; single strand
SDN1 wild type [3] = target: T1, SDN1 wild type; assay: EMSA; no Mg2+; Kd,app in µM range, value only in figure; EMSA: 50 mM Tris pH 8.0, 100 mM NaCl, 1 mM DTT, no Mg2+, 2 nM RNA, on ice 30 min, 8% native PAGE in 0.5x TBE; NMR: 50 mM Na2HPO4 pH 7.4, 100 mM NaCl, 10% D2O; settings: protein: recombinant; tags: His-SUMO tag removed; label: 5' 32P; single strand
[4] = label: 5' 32P on target strand, unpaired miR166 3' end (T6-type), target 3' overhang 4 nt

GAUUCCCUUGAAGCUUGGUCCGGAUUA (ssRNA, 5-iodoU at 25,26) [3'-IUU RNA]: binds (SDN1 wild type [1]; label: 32P, single strand); binds (SDN1 ΔC; label: 32P, single strand).

GAUUCCCUUGAAGCUUGGUCCGGAUUA (ssRNA, 5-iodoU at 15,16) [M-IUU RNA]: binds (SDN1 wild type [1]; label: 32P, single strand).

AGCCCAUUAG (ssRNA) [10 nt ssRNA (crystal, NMR)]: binds (SDN1 RRM (NMR)); binds (SDN1 wild type [2]).

UUCGCUUGCAGAGAGAAAUCAC (ssRNA) [miR173 (22 nt RNA)]: binds (SDN1 wild type [3]).

B1: miR166:3'-IUU (dsRNA)
RNA 1: UCGGACCAGGCUUCAUCCCCC
RNA 2: GAUUCCCUUGAAGCUUGGUCCGGAUUA
modifications: 5-iodoU at 25,26 of strand 2
B1: binds (SDN1 wild type [1]; [4]); binds (SDN1 ΔC; [4]).

B2: miR166:5'-IUU (dsRNA)
RNA 1: UCGGACCAGGCUUCAUCCCCC
RNA 2: GAUUCCCUUGAAGCUUGGUCCGGAUUA
modifications: 5-iodoU at 3,4 of strand 2
B2: binds (SDN1 wild type [1]; [4]).

GAUUCCCUUGAAGCUUGGUCCGGAUUA (ssRNA, 5-iodoU at 3,4) [5'-IUU RNA]: binds (SDN1 wild type [1]; label: 32P, single strand).
